Reference: the supplement of paper PMC9170038

Tested on: K4 kissing-loop RNA reporter
Test: apparent KD of K4 kissing-loop reporter; higher = weaker reporter binding
Settings: Eterna round: R107
Method: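 RNA-MaP round R107: designed RNA switches with theophylline, tryptophan, arginine or FMN aptamers are transcribed on-chip within common flanks. They are titrated with a labelled K4 kissing-loop RNA reporter in RNA-MaP buffer (100 mM Tris pH 7.5, 80 mM KCl, 4 mM MgCl2), without ligand or with the indicated ligand. Median apparent KD per design.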

[1] = input ligand: theophylline 20 uM
[2] = input ligand: tryptophan 2.4 mM
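Note: bound reporter read as fluorescence of individual clusters on recovered sequencing chips by microscopy, with normalized cluster intensities fitted with a binding model.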

Sequence: UGAUUGGCGAAAGUAGUGAUGUUACGAACAUAGGAUAUUAGAGGAAUAAGAAGGAUGAAUGAGAAAGGAAUAAAUUGUUGGUUGG [#08 K4 FMN A Same State]
- apparent KD of K4 kissing-loop reporter (input ligand: FMN 200 uM): 139 nM
- apparent KD of K4 kissing-loop reporter (input ligand: arginine 13.2 mM): 64 nM
- apparent KD of K4 kissing-loop reporter (input ligand: none): 165 nM
- apparent KD of K4 kissing-loop reporter [1]: 193 nM
- apparent KD of K4 kissing-loop reporter [2]: 102 nM

Sequence: UGCGCUGUGUACUGAAAUGUUAUGCGGGAUACCAGAGUCUUUUUAUUCCCUUGGCAGCUUGAGUGAUGUUUGAUGCCGUUCUUGU [po,,mmullin]
- apparent KD of K4 kissing-loop reporter (input ligand: FMN 200 uM): 490 nM
- apparent KD of K4 kissing-loop reporter (input ligand: arginine 13.2 mM): 256 nM
- apparent KD of K4 kissing-loop reporter (input ligand: none): 548 nM
- apparent KD of K4 kissing-loop reporter [1]: 577 nM
- apparent KD of K4 kissing-loop reporter [2]: 418 nM

Sequence: UGCGCUGUGUCCUGAAAUGUCCUCCGGGAUACCAGAGUCUUUUUAUUCCCUUGGCAGCUUGAGUGAUGUUUGAUGCCGUUCUUGU [yvvymullin]
- apparent KD of K4 kissing-loop reporter (input ligand: FMN 200 uM): 668 nM
- apparent KD of K4 kissing-loop reporter (input ligand: arginine 13.2 mM): 481 nM
- apparent KD of K4 kissing-loop reporter (input ligand: none): 713 nM
- apparent KD of K4 kissing-loop reporter [1]: 576 nM
- apparent KD of K4 kissing-loop reporter [2]: 515 nM

Sequence: UGCUUAGUGAUGUUUGAUUUGGUGCAUGCAGAGGAUAUAGGGUGCUUUAGAAGGCUGAGGAGUGCGCCGAGUGAUGUUCGGCGCU [Exclusion FMN A GF11]
- apparent KD of K4 kissing-loop reporter (input ligand: FMN 200 uM): 192 nM
- apparent KD of K4 kissing-loop reporter (input ligand: arginine 13.2 mM): 164 nM
- apparent KD of K4 kissing-loop reporter (input ligand: none): 206 nM
- apparent KD of K4 kissing-loop reporter [1]: 182 nM
- apparent KD of K4 kissing-loop reporter [2]: 170 nM

Sequence: UGGAGUUGACGAAAAGUCAACUCCCGAGAAGGAGCGGACGAAAGUCCAGGUAGGUCGCUCACUACCAGUGAUGUUGGUACUAAAA
- apparent KD of K4 kissing-loop reporter (input ligand: FMN 200 uM): 148 nM
- apparent KD of K4 kissing-loop reporter (input ligand: arginine 13.2 mM): 196 nM
- apparent KD of K4 kissing-loop reporter (input ligand: none): 129 nM
- apparent KD of K4 kissing-loop reporter [1]: 135 nM
- apparent KD of K4 kissing-loop reporter [2]: 111 nM

Sequence: UGGAGUUGACGAAAAGUCAACUCCUGAGAUACCAGUGACGAAAGUCACCCUUGGCAGCUCACUGCCAGUGAUGUUGGUAAAUAAA [#OpenEnded 3]
- apparent KD of K4 kissing-loop reporter (input ligand: FMN 200 uM): 78.1 nM
- apparent KD of K4 kissing-loop reporter (input ligand: arginine 13.2 mM): 92.5 nM
- apparent KD of K4 kissing-loop reporter (input ligand: none): 159 nM
- apparent KD of K4 kissing-loop reporter [1]: 568 nM
- apparent KD of K4 kissing-loop reporter [2]: 81.8 nM

Sequence: UGGAGUUGACGAAAAGUCAACUCCUGGGAAGGAGCGGACGAAAGUCCAGGUAGGUCGCUCACUACCAGUGAUGUUGGUACUAAAA
- apparent KD of K4 kissing-loop reporter (input ligand: FMN 200 uM): 144 nM
- apparent KD of K4 kissing-loop reporter (input ligand: arginine 13.2 mM): 351 nM
- apparent KD of K4 kissing-loop reporter (input ligand: none): 296 nM
- apparent KD of K4 kissing-loop reporter [1]: 200 nM
- apparent KD of K4 kissing-loop reporter [2]: 215 nM

Sequence: UGGAUAUAGUGAUGUUAUAUAGAGAGUGAUACCAGUUUAGAGAAGAACCCUUGGCAGCAUAGAAGAGUAUCAUUGGAGAAGAAUG [ExTheophyl.Aq]
- apparent KD of K4 kissing-loop reporter (input ligand: FMN 200 uM): 243 nM
- apparent KD of K4 kissing-loop reporter (input ligand: arginine 13.2 mM): 193 nM
- apparent KD of K4 kissing-loop reporter (input ligand: none): 242 nM
- apparent KD of K4 kissing-loop reporter [1]: 181 nM
- apparent KD of K4 kissing-loop reporter [2]: 155 nM

Sequence: UGGGAUGGUUCGGCCGCCACUAUGGUGCAGUGAUGUUGCAUCGUAGUAAAUCAUUCCAUUUACCGUAGGACCGGGAACCUUACGC [Mavelege]
- apparent KD of K4 kissing-loop reporter (input ligand: FMN 200 uM): 108 nM
- apparent KD of K4 kissing-loop reporter (input ligand: arginine 13.2 mM): 82.7 nM
- apparent KD of K4 kissing-loop reporter (input ligand: none): 94.9 nM
- apparent KD of K4 kissing-loop reporter [1]: 83.4 nM
- apparent KD of K4 kissing-loop reporter [2]: 86.2 nM

Sequence: UGUACCGAGUCAGGAUAUCAACGACUGACAAAAGUCGGUCGAAUAUCCAGUGAUGUUGGAAAUAAAUGAGAAGGGACUUGGUACU [FmnBS 14 #SwitchBubble #StaticStem]
- apparent KD of K4 kissing-loop reporter (input ligand: FMN 200 uM): 125 nM
- apparent KD of K4 kissing-loop reporter (input ligand: arginine 13.2 mM): 258 nM
- apparent KD of K4 kissing-loop reporter (input ligand: none): 276 nM
- apparent KD of K4 kissing-loop reporter [1]: 264 nM
- apparent KD of K4 kissing-loop reporter [2]: 265 nM

Sequence: UGUACCGAGUCAGGAUAUCGCGUCGAAAGACGAAACGAGUGAUGUUCGAAUCGAUCGAAAGAUCGUCGAGAAGGGACUUGGUACU [FmnBS 22 #SwitchBubble #StaticStem #DoubleMagnetSystem]
- apparent KD of K4 kissing-loop reporter (input ligand: FMN 200 uM): 219 nM
- apparent KD of K4 kissing-loop reporter (input ligand: arginine 13.2 mM): 676 nM
- apparent KD of K4 kissing-loop reporter (input ligand: none): 642 nM
- apparent KD of K4 kissing-loop reporter [1]: 569 nM
- apparent KD of K4 kissing-loop reporter [2]: 589 nM

Sequence: UGUACCGAGUCAGGAUAUGGCGUCGAAAGACGAAUUCUAGUGAUGUUAGGGAUCUGCGAAAGCAGUCUAGAAGGGACUUGGUACU [FmnBS 26 U36+U68]
- apparent KD of K4 kissing-loop reporter (input ligand: FMN 200 uM): 356 nM
- apparent KD of K4 kissing-loop reporter (input ligand: arginine 13.2 mM): 407 nM
- apparent KD of K4 kissing-loop reporter (input ligand: none): 508 nM
- apparent KD of K4 kissing-loop reporter [1]: 684 nM
- apparent KD of K4 kissing-loop reporter [2]: 512 nM

Sequence: UGUAUAUGAUGUGAUACCAGUGAAGAGCCAGUGAUGUUGGUAGAACUGGUAUAUAAAUAACACCCUUGGCAGCACAAUCACGUAC [whbob_Ex_Theo_B_sa98]
- apparent KD of K4 kissing-loop reporter (input ligand: FMN 200 uM): 192 nM
- apparent KD of K4 kissing-loop reporter (input ligand: arginine 13.2 mM): 188 nM
- apparent KD of K4 kissing-loop reporter (input ligand: none): 202 nM
- apparent KD of K4 kissing-loop reporter [1]: 265 nM
- apparent KD of K4 kissing-loop reporter [2]: 196 nM

Sequence: UGUAUGUGAUUUGAUACCAGACCAGCUGAUGGAUCACGAGUGAUGUUCGUGUUGGUUUGGGUCCCUUGGCAGCAAAUCGCAUACU [KL-SSTheoB14]
- apparent KD of K4 kissing-loop reporter (input ligand: FMN 200 uM): 308 nM
- apparent KD of K4 kissing-loop reporter (input ligand: arginine 13.2 mM): 282 nM
- apparent KD of K4 kissing-loop reporter (input ligand: none): 324 nM
- apparent KD of K4 kissing-loop reporter [1]: 248 nM
- apparent KD of K4 kissing-loop reporter [2]: 285 nM

Sequence: UGUAUGUGAUUUGAUACCAGACCAGCUGGAGGAAUCUGAGUGAUGUUCAGGUAGGUUUGGGUCCCUUGGCAGCAAAUCGCAUACU [KL-SSTheoB17]
- apparent KD of K4 kissing-loop reporter (input ligand: FMN 200 uM): 251 nM
- apparent KD of K4 kissing-loop reporter (input ligand: arginine 13.2 mM): 196 nM
- apparent KD of K4 kissing-loop reporter (input ligand: none): 236 nM
- apparent KD of K4 kissing-loop reporter [1]: 192 nM
- apparent KD of K4 kissing-loop reporter [2]: 209 nM

Sequence: UGUAUGUGAUUUGAUACCAGACCAUCUUGUGAAUGAUGAGUGAUGUUUAUUAUGGUUUGGGUCCCUUGGCAGCAAAUCGCAUACU [KL-SSTheoB25]
- apparent KD of K4 kissing-loop reporter (input ligand: FMN 200 uM): 926 nM
- apparent KD of K4 kissing-loop reporter (input ligand: arginine 13.2 mM): 717 nM
- apparent KD of K4 kissing-loop reporter (input ligand: none): 976 nM
- apparent KD of K4 kissing-loop reporter [1]: 781 nM
- apparent KD of K4 kissing-loop reporter [2]: 803 nM
